Experimental data reported in the DeepSol protein solubility set.

Experiment: soluble on expression in E. coli; label from the status in PepcDB or PDB records

Sequence	soluble on expression in E. coli
MLSQLREIVEKVSRVDDVHLALDILVKETCAALRTECCTIYLANEEMQRLELMATQGLIFEGDSIHINFNEGLVGLVKRSAEPLNLAEASKHPEFKFFPQLGEQVYHSFLATPIIHRKQVLGVLVIQQKTPRLFSEMEESFLVTLSAQLAVIIAHAQSLGHWQ	not soluble
MLTEEKEDYLKAILTNNGDKNFVTNKILSQFLNIKPPSVSEMVGRLEKAGYVETKPYKGVRLTEDGLTHTLDIIKRHRLLELFLIEILKYNWEEVHQEAEILEHRISDLFVERLDSLLNFPETCPHGGVIPRNNEYKEKYITTILNYEPGDIVTIKRVRDKTDLLIYLSSKDISIGNEVEIVSKDEMNKVIIIKRNDNVIIVSYENAMNMFAEK	not soluble
MLTGCSRRELLDDYPVSGVDIKLDWNGVTDKLPEGVRVIFYPKSAEGRKIDTYLSVRGGKVKVPPGRYSVVAYNYDTETVQIRGEEAYETIEAFTGYCNGLGIAGTEKMVWGPDPLYVVQIDDLHIANSEEELLLDWKPKLVVKTYFFKIKVEGLEYVSSIVGSVEGMAGCYCLGRCCGMMCDAPIYFEAQGRSGEVTGSFTAFGMPEAAISRAGDKIKLTLAFIKVDKTVQKAEIDITEVVTNSESGGSGGGNVDEPPTEIELPLDEKVKVEKPTTNPDGGGGGIGGDVGDWGDEDEVVLPVE	not soluble
MLTIIKTILDVIVGVKERDYVKNTFNQLLKEKNITNYQYIRTAGNQILIDDRDILYVIHDKGWVSRGYGRITDIELSIDDSVAFQSSLSSATGRAIAGGVLAGGVGAIIGGVTGRKNGKKIVHRITLTISFNTPDRPYARVTFLDNQQGVDIYSDEYKRAEEDALYWSKLISSLMN	not soluble
MLTLLMCGGKGTRLGRGEKPLFEVCGMKLIDHSLLQYKDFDVIAITSPHTPATESYLAEKGVEVYRAAGKGYIEDYSEACRELAINEPVIVASADIVYIRDIAFDIVDAYMKTIKPALTVVMEGEPVGVNIIDSLLINTWQEEEIYSIEKDSVVNVNTVADVERAERLWTTMRKERGWQRDLEHHHHHH	soluble
MLTMKDVIREGDPILRNVAEEVVIPASEEDTNTLKEMIEFVINSQDPEMAEKYSLRPGIGLAAPQIGISKKMIAVHVTDTDGTLYSHALFNPKIISHSVERTYLQSGEGCLSVDREVPGYVPRYTRITVKATSINGEEVKLRLKGLPAIVFQHEIDHLNGVMFYDHINKENPFAAPDGSKPLER	not soluble
MLTMKFLVPVDFSEITNPLLRTVKRVGEKVDCEVHLLHVIPPVLYLPYPETMGVSVIDIELLEKLEDEKKAEAKEKLKALEEFLKPVKARSHVDVGDPADVILDYEEKLNPDMVFLGGHKKGLIEKLLIGSTTEKVVKHGKKSDFVIKGSEVEFRKKVVIAYDFSKTAQKTAEFALKFLKNFKVSVEIVHVHESIEMPLIEKLKHKIEKEFSEEKKKILNELKGRFEEEGIKTEVKFLEGEDAVDVISSYVNETPEVELLIIGSKGLSGLKKLILGRTATKLLGKVNKPILIYKVQE	soluble
MLTSRALRIPRKPFVDLDYARHMPSAYVERTKRTVPRKVFGDRFGAPDIKMYYVHPDDYVPSHRRPWEDKQISSHLHRSDKYFSAQLSNQYFNLRRPKSERMADTEWTFFPGDLVQVMVGKDKGRQGLVLTTSRDSSDVIVDGLHTKLGEDMEGSEKLGVDKTLRWQEQPLSVSKKQVMLVDPNDEQPCEARWQLNGPGDEYIRVSTRSGYEIPIPSQAKVTYEYLQPENYIEVEGKDTPADAVLERTYMPKVASFEQEIMEEMGIKEERTPKPTFWY	not soluble
MLVAPFASQLPFVEETLHSSYQALQWGKNIFAIAHKTLSARLLNTVFPTEERTQPLSPELQAWLKERYEALLQQDWQDAAAGFYPATLLFDAPWEEFLRFYPLLLLDLPQMWQRARSRQFQEFAHNVRLEDYPQYYRQNFHYQTDGYLSDTSANLYDIQVELLFGGTADAMRRRVIAPIAQQVVAHPPTPPLRILDVACGTGRTLKQLRYAFPGAVLFGLDLSPAYLRKANALLATQTGALPQLIQGNAESLPYVDSYFSAITCVFLFHELPAPVRQNVIHECARVLQPGGIFVICDSIQSLDSPEQRPMMENFANLFHEPFYRNYIEDDLNLRLEKAGLVVKEVQHHFMSKYWVAVKPSLEHHHHHH	not soluble
MLVDSFNRVIDYIRVSVTKQCNFRCQYCMPATPLNFFDNEELLPLDNVLEFLKIAIDEGVKKIRITGGEPLLRKGLDEFIAKLHAYNKEVELVLSTNGFLLKKMAKDLKNAGLAQVNVSLDSLKSDRVLKISQKDALKNTLEGIEESLKVGLKLKLNTVVIKSVNDDEILELLEYAKNRHIQIRYIEFMENTHAKSLVKGLKEREILDLIAQKYQIIEAEKPKQGSSKIYTLENGYQFGIIAPHSDDFCQSCNRIRLASDGKICPCLYYQDAIDAKEAIINKDTKNIKRLLKQSVINKPEKNMWNDKNSETPTRAFYYTGGLEHHHHHH	not soluble
MLVSEMHGEVEAVKVGTEVQGRVLHWVYLYYYRNLLFDAGCPNTAQEVFEHFKGREIKAVLITHYHEDHIGAVNLFKEITDVYVPEESLEILRNPPDIPKYRKIGWGQPEKIEGVKVAKEVMKFDDVEVRMIKTPGHSFDHVSYLVDDKLFCGDLVINTAQMVCMREENLLKTIESIEKVLKYDFNYAYTGVGVASRDEVVEYLNYLKGLKEKAEMLYAEGKTIDEIVAACFPNPSQKAILMEFVSEKEWARENMVKSLLGLPRE	not soluble
MLWRKRLFAHLYPGLSARHEALVAERKRALFREALRRARPERVLEIGPGPGTNLAHLPEGVAYLALEPNPFFHPRLREEARKRGLALTLLPGRAEAIPLPGGSVDLVVATLVLCSVADPEKAIEEVHRVLRPGGAYLFLEHVAAPKGAPLRLLQEAATPFFVFFGDGCHPNRKTLAQIQARFPRVEAEAFSLPLPVVAPHVAGLAFKELEHHHHHH	not soluble
MMAIQASDMDISRFGSEIFRNSPRQSDLMIVSGTVTKKMAPRVRRIYDEMPYPKYVIAQGVCVIQGGPYNQGYSVVLGVDKVVPVDVYVPGCPPTPEALTNGIILLQKKIRGEADRLEHHHHHH	not soluble
MMALDDTVTIKPIRAEHVESFHRALDAVSRERKYLSFLEAPPLEAVRAFVLDMIENDHPQFVAIADGDVIGWCDIRRQDRATRAHCGTLGMGILPAYRNKGLGARLMRRTLDAAHEFGLHRIELSVHADNARAIALYEKIGFAHEGRARDAVSIDGHYIDSLNMAIIFGN	soluble
MMDEKLNFSYLFGSNAPYIEELYEAFLENPDAVDEKWKQYFTDLSKQPGTVAVDVAHTPIRESFVTLAKKKIASAVAGGADEAMLKKQVSVLRLISAYRIQGVGAAQLDPLKRIPPRDIEALDPKFHGLSDADMALQFNMGEGDFANRGKLPLSQIISNLKQTYCGHIALEYIYIPNTEERRWVRNYFESVLSTPHYNADQKRRILKEMTAAETLERYLHTKYVGQKRFGVEGGESAIAGLNYLIQNAGKDGVEEVIIGMAHRGRLNVLVNILGKKPGDLFAEFEGRAEIKLPSGDVKYHMGFSSDIATPHGPMHVSLAFNPSHLEIVNPVVEGSARAKQKRLGENGRDKVLPVLIHGDSAFIGLGVNQATFNLSKTRGYTTGGTVHIVINNQIGFTTSDIRDTRSTVHCTDIAKMVSAPVIHVNGDDPERVCFAIQAALDYRKKFHKDIVIDVVCYRKWGHNEGDDPTLTQPMMYKKVSQHPGARALYTEQLIAEGVVTQAEADGYIQAYRDALDKGEHVEQTTLSNFQRTQIDWSKYQGKDWREHIETGLPAADIERLTEKFTAVPEGFALHPTAKRVIEARKAMASGKQAIDWGMAETLAYASLVTKGHGVRISGEDSGRGTFSHRHAVLHDQKREKWDDGTYVPLRHMGEGMGEFLVIDSILNEEAVMAFEYGFACSAPDKLTIWEAQFGDFANGAQVTIDQFLSSGETKWGRLCGLTTILPHGYDGQGPEHSSARVERWLQLCSENNMQVIMPSEASQMFHLLQRQVLGSYRKPLVIFMSKRLLRFKGAMSPLENFTEGSTFRPVIGDTAERASNDSVKRVVLCAGQVYYDLEAGRAERKLEDDVAIVRVEQLYPFPYDEVKAELAKYPNAKSVVWAQEEPKNQGAFYQIRHRIEDVISEEQKLSYAGRPSSASPAVGYSSKHIAQLKQLVEDALAL	not soluble
MMDVSGVGFPSKVPWKKMSAEELENQYCPSRWVVRLGAEEALRTYSQIGIEATTRARATRKSLLHVPYGDGEGEKVDIYFPDESSEALPFFLFFHGGYWQSGSKDESAFMVHPLTAQGVAVVIVAYGIAPKGTLDHMVDQVTRSVAFVQKRYPSNKGIYLCGHSAGAHLAAMMLLADWTKHGVTPNLRGFFLVSGVFDLEPIVYTSQNVALQLTLEDAQRNNPQLKVAQAQPVDPTCRVLVVVGQFDSPEFHRQSWEFYQVLPVQTLCQGEWKASFEELHDVDHFEIVENLTQKDNVLTQIILKTIFQ	soluble
MMFVKNNFNTNNFDAELVEAIGNRLENNQFSDAILAGTKYLTTLLREKGQCEGDGAQLVGTVLGGQSPRIQINSLQSVSEQDEQRGFEALLRGYYQCIRNPRTHDNFPDTEDSCMRILIMLDTFIKYLKRDVAEFDYTAILERIYEVHFVNNSDYAEALISQIPEKKLLDFFQSLISRFNERPTKEIDSIFKAINQRFSGEEEKAAMRLLGDELRKASNNVEFANVFRIIKPSAWRNLPDDVLIRMENIIIEECKKGYLDFYSDATKGAIGTWGNTFGSKFKRRGDLGDALIGLLYDSWYTQNYVAKYYVFSIPSIITDDVKVKELADALAYATIVNGAKLLRTKLIDACKNYPDKLKEHLRDAVQQRMDSDKKYAEELLGQIS	not soluble
MMGMAVSTKLSIDEVNMLEKEDFVTKIGPIFEHSPWVAERAWAHRPFTSAENMYECMLEKVYEADKRLQLALLRAHPDLGTRLEISETSQSEQQRAGLSQLTEEEFAVFAELNKCYVDTFRFPFIMAVRGQTKNSIKEQMRKRLVNDEEQERKTALREVAKIAKFRLADLVVMGSRSLEHHHHHH	soluble
MMIAAAIFTTCVDGNKFFYHREIKVLRHLKRFNKPALKSIKSEDGDVIDCVPITNQPAFDHHLLKNHTIQMRPSFYPVSDSTYTKREAKAVTQVWHKAGECPKNTVPIRRTKKEDLLRPKSIRSFGRKSHQSIPRTTTFDPTLGHQYALMGVRNGKFYGTEVAINLWKPYVQIPKEFSLAQTWVVSGNGSSLNTIEAGWQVYPELYDDNNPRFFVYWTRDGYRKTGCYNLLCSGFVQTSNRYTVGGSITTMSRYRGTQYDLSVLIWKDQKTGNWWLRVNEKDVIGYWPGSLFNSLGREATRVEWGGEIINSKTGGRHTTTDMGSGHFADEGFKKASYFRNLKIVDGTNTLREPQGLYFFADKHNCYNVKTGNGGTSWGAHFFYGGPGRNVKCP	soluble
MMKEVLDAFRKSGEAEGFGHNKMSSSEVASHYNKVLQVGIEGRKESRIFFMRNMNNWVKSQLINDAKQRVNDNGVNNPRVLDLACGKGGDLKKWDIAGAKDVVMADVADVSIQQAEERYKQMFGYKKNNIFTVQFIVADCTKENLEDRIENKDPFDLVSCQFALHYSFVDEASARIFLKNAVGMLKPGGVFIGTLPDADRIVWSMRNGENGQFANEVCKITYENVEELAEGKVPLFGAKFHFSLDEQVNCPEFLAYFPLVKHLLEELDMELLFVHNFAEAINKWLEPGRRLLESMTGLETYPNEKLSGKSDDEYLEAKAKLDAFPEDERIKTMGTLSKSEWEAICMYLVFGFRKKKSEAEKTEEEPATTKPVAESESEQKEVTESEEKEDQEDCEHQEAQTN	soluble
MMKMIIAIVQDQDSQELADQLVKNNFRATKLATTGGFLRAGNTTFLCGVNDDRVDEILSVINQTCGNREQLVSPITPMGGSADSYIPYPVEVEVGGATVFVMPVDAFHQFLEHHHHHH	soluble
MMKQGMANSISMTWQLLCDEHGFTREHYNQLKKFSPETLREIIAEIASCHPSTSVLLRNKWLTPPEDILEQITREYERRIQNCPPFRSEKEAESWLNELSFAVIAPLYRVAPEQTEQVESFVLQLIAEQERVWELILTNDGYSWHCALYDILFHLVLRNMEDQPEHQKQRITKIFYEPDARLVAEEIKFRIQSLYDDEQKRALSELVNDFTSKE	soluble
